In publication PMC6692507:

What was measured:
[1] = target: uL23(52pBpa), in 70S ribosomes, RNCs or living cells (E. coli) (UniProt P0ADZ0); test: cross-linking; competition: SecA (2.5 uM) premixed with Ffh/SRP (0.5, 2.5, 12.5 uM) in buffer C, 10 min 30°C with 0.5 uM 70S ribosomes bearing pBpa at position 71 or 52 of uL23, UV 20 min on ice; anti-SecA and anti-Ffh blots
[2] = target: uL23(71pBpa), in 70S ribosomes, RNCs or living cells (E. coli) (UniProt P0ADZ0); test: as above

- reduction of the SecA-uL23 cross-linking product with SRP equimolar to SecA [1]: 50%
- reduction of the SecA-uL23 cross-linking product with SRP equimolar to SecA [2]: 50%
Substance: Ffh, the protein component of the bacterial signal recognition particle (SRP), purified (from UniProt P0AGD7 1-453) (natural protein)
